Tests used:
[1] = target: T1, CD3 on primary human pan T cells (human, UniProt P07766 23-207); experiment: flow cytometry, pan T-cells
T1 construct: on cells it stands in the TCR/CD3 complex; also called Pan T-cells (CD3-positive); endogenous CD3
Protocol: ELISA assays for binding to recombinant CD3 (TRCW5, SEQ ID NO: 39) were performed as above. Cell binding was performed using primary human T cell and Jurkat cells by flow cytometry. Briefly, E. coli expressed anti CD3 ScFv supernatants, either at room temperature, or 55° C., 60° C. or 65° C. heat treated samples.
Pan T-cells (CD3-positive) and Jurkat-CD3-negative cells were prepared by staining Jurkat-CD3-negative cells with CFSE while keeping pan T-cells unstained. Jurkat-CD3-negative cell suspensions were resuspended at 20 million cells per each 50 mL conical tube. Cells were harvested by centrifugation at 400×g for 5 minutes and resuspended in DPBS followed by washing 2× in DPBS. Cells were stained with 1:25,000 dilution for a final dye concentration of 0.02 uM CFSE (2 uL of staining solution to 50 mL of cell suspension). Cells were incubated for 10 minutes at room temperature and centrifuged for 5 minutes at 400×g. After removal of supernatant, 3 mL of HI-FBS were added to the cell pellet, mixed and centrifuged for 5 min at 400×g. Supernatant was removed and cells were resuspended in BD stain buffer at 2×10\hat{ }6 cells/mL and incubated on ice or 4 C protected from light. Human pan T cells were thawed at 37 C and transferred gently into a conical tube containing 15 mL of warm or RT culture media (RPMI+10% FBS). […] Cells were harvested by centrifugation at 400×g for 5 min and resuspended in culture media (RPMI+10% HI-FBS). Pan T-cells (without staining) were prepared at 2×10\hat{ }6 cells/mL in flow staining buffer. Equal volumes of CFSE stained Jurkat-CD3-negative cells and unstained T-cells (CD3-positive) cells were mixed and plated 50 uL/well into assay plates. 50 uL/well neat bacterial supernatant samples and control sample (CD3W36 ScFv) were added to each well and plates were incubated 1 hr at 4 C or. Cells were harvested by centrifugation at 400×g for 4 min and 150 uL staining buffer were added to all wells, followed by centrifugation at 400×g for 4 min to pellet cells. To each well, 150 uL staining buffer were added followed by centrifugation at 400×g for 4 minutes to pellet cells.

[2] = target: T2, TRCW5 antigen (CD3δε-Fc-Avi) (biotinylated (site not stated)); experiment: ELISA after heat
T2 construct: also called recombinant CD3
T2 sequence (chain, as listed by the source mutant limits assumed): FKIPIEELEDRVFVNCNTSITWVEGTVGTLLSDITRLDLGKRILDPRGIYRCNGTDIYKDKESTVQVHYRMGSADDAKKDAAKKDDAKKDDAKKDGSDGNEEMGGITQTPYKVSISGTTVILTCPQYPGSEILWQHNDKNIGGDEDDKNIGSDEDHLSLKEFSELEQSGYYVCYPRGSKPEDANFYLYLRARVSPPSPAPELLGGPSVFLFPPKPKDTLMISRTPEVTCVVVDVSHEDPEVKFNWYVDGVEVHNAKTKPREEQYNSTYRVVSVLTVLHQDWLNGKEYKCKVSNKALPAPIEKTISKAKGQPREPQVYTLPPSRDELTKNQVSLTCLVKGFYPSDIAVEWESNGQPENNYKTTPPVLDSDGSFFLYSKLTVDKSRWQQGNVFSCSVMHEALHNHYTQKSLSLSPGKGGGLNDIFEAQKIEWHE

T1 sequence (P07766 23-207 limits assumed): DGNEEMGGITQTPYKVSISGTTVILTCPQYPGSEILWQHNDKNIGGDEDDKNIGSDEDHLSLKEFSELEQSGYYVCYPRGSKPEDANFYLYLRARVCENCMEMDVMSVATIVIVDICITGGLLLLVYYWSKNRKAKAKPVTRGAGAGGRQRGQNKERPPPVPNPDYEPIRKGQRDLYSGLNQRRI

| Binder | % Binding retained on T-cells, 55° C. [1] | % Binding retained on T-cells, 60° C. [1] | % Binding retained on T-cells, 65° C. [1] | % Binding retained on T-cells, RT [1] | % Retained 55° C. [2] | % Retained 60° C. [2] | % Retained 65° C. [2] |
| --- | --- | --- | --- | --- | --- | --- | --- |
| CD3B2063 (scFv) scFv: QVQLVQSGAEVKKPGSSVKVSCKASGYTFTRSTMHWVKQAPGQGLEWIGYINPSSAYTNYAQKFQGRVTLTADKSTSTAYMELSSLRSEDTAVYYCASPQVHYDYNGFPYWGQGTLVTVSSGGSEGKSSGSGSESKSTGGSEIVLTQSPATLSASPGERVTLSCSASSSVSYMNWYQQKPGTAPRRLIYDSSKLASGVPARFSGSGSGRDYTLTISSLEPEDFAVYYCQQWSRNPPTFGGGTKVEIK | 1 fraction | 0.996 fraction | 0.185 fraction | 1 fraction | 108% | 92% | 11% |
| CD3B2072 (scFv) scFv: QVQLVQSGAEVKKPGSSVKVSCKASGYTFTRSTMHWVRQAPGQGLEWMGYINPSSAYTNYNQKFQGRVTLTADKSTSTAYMELSSLRSEDTAVYYCASPQVHYDYNGFPYWGQGTLVTVSSGGSEGKSSGSGSESKSTGGSEIVLTQSPATLSASPGERVTLSCSASSSVSYMNWYQQKPGQSPRRWIYDSSKLASGVPARFSGSGSGRDYTLTISSLEPEDFAVYYCQQWSRNPPTFGGGTKVEIK | 0.872 fraction | 1.27 fraction | 0.0933 fraction | 1 fraction | 117% | 111% | 17% |
| CD3B2064 (scFv) scFv: QVQLVQSGAEVKKPGSSVKVSCKASGYTFTRSTMHWVKQAPGQGLEWIGYINPSSAYTNYAQKFQGRVTLTADKSTSTAYMELSSLRSEDTAVYYCASPQVHYDYNGFPYWGQGTLVTVSSGGSEGKSSGSGSESKSTGGSEIVLTQSPATLSASPGERVTLSCSASSSVSYMNWYQQKPGQSPRRWIYDSSKLASGVPARFSGSGSGRDYTLTISSLEPEDFAVYYCQQWSRNPPTFGGGTKVEIK | 1.17 fraction | 0.741 fraction | 0.241 fraction | 1 fraction | 111% | 107% | 33% |
| CD3B2073 (scFv) scFv: QVQLVQSGAEVKKPGSSVKVSCKASGYTFTRSTMHWVRQAPGQGLEWMGYINPSSAYTNYNQKFQGRVTLTADKSTSTAYMELSSLRSEDTAVYYCASPQVHYDYNGFPYWGQGTLVTVSSGGSEGKSSGSGSESKSTGGSEIVLTQSPATLSASPGERVTLSCSASSSVSYMNWYQQKPGQAPRRWIYDSSKLASGVPARFSGSGSGRDYTLTISSLEPEDFAVYYCQQWSRNPPTFGGGTKVEIK | 0.993 fraction | 1.1 fraction | 0.348 fraction | 1 fraction | 113% | 110% | 27% |
| CD3B2065 (scFv) scFv: QVQLVQSGAEVKKPGSSVKVSCKASGYTFTRSTMHWVKQAPGQGLEWIGYINPSSAYTNYAQKFQGRVTLTADKSTSTAYMELSSLRSEDTAVYYCASPQVHYDYNGFPYWGQGTLVTVSSGGSEGKSSGSGSESKSTGGSEIVLTQSPATLSASPGERVTLSCSASSSVSYMNWYQQKPGQAPRRWIYDSSKLASGVPARFSGSGSGRDYTLTISSLEPEDFAVYYCQQWSRNPPTFGGGTKVEIK | 1.14 fraction | 1.33 fraction | 0.156 fraction | 1 fraction | 115% | 112% | 48% |
| CD3B2071 (scFv) scFv: QVQLVQSGAEVKKPGSSVKVSCKASGYTFTRSTMHWVRQAPGQGLEWMGYINPSSAYTNYNQKFQGRVTLTADKSTSTAYMELSSLRSEDTAVYYCASPQVHYDYNGFPYWGQGTLVTVSSGGSEGKSSGSGSESKSTGGSEIVLTQSPATLSASPGERVTLSCSASSSVSYMNWYQQKPGTAPRRLIYDSSKLASGVPARFSGSGSGRDYTLTISSLEPEDFAVYYCQQWSRNPPTFGGGTKVEIK | 1.01 fraction | 0.899 fraction | 0.12 fraction | 1 fraction | 103% | 88% | 4% |
| CD3B2069 (scFv) scFv: QVQLVQSGAEVKKPGSSVKVSCKASGYTFTRSTMHWVRQAPGQGLEWMGYINPSSAYTNYNQKFQGRVTLTADKSTSTAYMELSSLRSEDTAVYYCASPQVHYDYNGFPYWGQGTLVTVSSGGSEGKSSGSGSESKSTGGSEIVLTQSPATLSASPGERVTLSCSASSSVSYMNWYQQKPGTAPRRWIYDSSKLASGVPARFSGSGSGRDYTLTISSLEPEDFAVYYCQQWSRNPPTFGGGTKVEIK | 1.08 fraction | 1.48 fraction | 0.11 fraction | 1 fraction | 114% | 109% | 17% |

The remaining lines, values ahead:

| % Binding retained on T-cells, 55° C. [1] | % Binding retained on T-cells, 60° C. [1] | % Binding retained on T-cells, 65° C. [1] | % Binding retained on T-cells, RT [1] | % Retained 55° C. [2] | % Retained 60° C. [2] | % Retained 65° C. [2] | Binder |
| --- | --- | --- | --- | --- | --- | --- | --- |
| 1.06 fraction | 0.979 fraction | 0.116 fraction | 1 fraction | 111% | 92% | 2% | CD3B2079 (scFv) scFv: QVQLVQSGAEVKKPGSSVKVSCKASGYTFTRSTMHWVRQAPGQGLEWIGYINPSSAYTNYAQKFQGRVTLTADKSTSTAYMELSSLRSEDTAVYYCASPQVHYDYNGFPYWGQGTLVTVSSGGSEGKSSGSGSESKSTGGSEIVLTQSPATLSASPGERVTLSCSASSSVSYMNWYQQKPGTAPRRLIYDSSKLASGVPARFSGSGSGRDYTLTISSLEPEDFAVYYCQQWSRNPPTFGGGTKVEIK |
| 1.03 fraction | 1.1 fraction | 0.307 fraction | 1 fraction | 106% | 107% | 22% | CD3B2077 (scFv) scFv: QVQLVQSGAEVKKPGSSVKVSCKASGYTFTRSTMHWVRQAPGQGLEWIGYINPSSAYTNYAQKFQGRVTLTADKSTSTAYMELSSLRSEDTAVYYCASPQVHYDYNGFPYWGQGTLVTVSSGGSEGKSSGSGSESKSTGGSEIVLTQSPATLSASPGERVTLSCSASSSVSYMNWYQQKPGTAPRRWIYDSSKLASGVPARFSGSGSGRDYTLTISSLEPEDFAVYYCQQWSRNPPTFGGGTKVEIK |
| 1.01 fraction | 0.762 fraction | 0.0574 fraction | 1 fraction | 107% | 88% | 2% | CD3B2078 (scFv) scFv: QVQLVQSGAEVKKPGSSVKVSCKASGYTFTRSTMHWVRQAPGQGLEWIGYINPSSAYTNYAQKFQGRVTLTADKSTSTAYMELSSLRSEDTAVYYCASPQVHYDYNGFPYWGQGTLVTVSSGGSEGKSSGSGSESKSTGGSEIVLTQSPATLSASPGERVTLSCSASSSVSYMNWYQQKPGTSPRRLIYDSSKLASGVPARFSGSGSGRDYTLTISSLEPEDFAVYYCQQWSRNPPTFGGGTKVEIK |

Reference: patent US20250145711A1 (Janssen / Centocor, published 2025)
